# Experimental data from patent US20170189510A1.
# B1: peptide SEQ ID No 207 … (peptide)
# peptide: AYVVFVSTL
# B2: peptide SEQ ID No 222 … (peptide)
# peptide: TFSVSSHLF
# B3: peptide SEQ ID No 268 … (peptide)
# peptide: QYLGQIQHI
# B4: peptide SEQ ID No 285 … (peptide)
# peptide: HYPPVQVLF
# B5: peptide SEQ ID No 209 … (peptide)
# peptide: TYKDEGNDYF
# B6: peptide SEQ ID No 200 … (peptide)
# peptide: YYGPSLFLL
# B7: peptide SEQ ID No 287 … (peptide)
# peptide: LYITEPKTI
# B8: peptide SEQ ID No 202 … (peptide)
# peptide: VYWDSAGAAHF
# B9: peptide SEQ ID No 204 … (peptide)
# peptide: TYELRYFQI
# B10: peptide SEQ ID No 199 … (peptide)
# peptide: RYAEEVGIF
# B11: peptide SEQ ID No 218 … (peptide)
# peptide: YYKSTSSAF
# B12: peptide SEQ ID No 277 … (peptide)
# peptide: VYQGHTALL
# B13: peptide SEQ ID No 269 … (peptide)
# peptide: YFIDSTNLKTHF
# B14: peptide SEQ ID No 281 … (peptide)
# peptide: PYRLIFEKF
# B15: peptide SEQ ID No 270 … (peptide)
# peptide: NYYEVHKELF
# B16: peptide SEQ ID No 201 … (peptide)
# peptide: IYATEAHVF
# Molecular target: HLA-A*24 (human)
# Assay: UV-ligand exchange, anti-b2m ELISA
row,peptide exchange yield,Binder
1,20 to 49%,B1
2,50 to 75%,B2
3,50 to 75%,B3
4,50 to 75%,B4
5,50 to 75%,B5
6,50 to 75%,B6
7,50 to 75%,B7
8,> 75%,B8
9,> 75%,B9
10,50 to 75%,B10
11,50 to 75%,B11
12,> 75%,B12
13,50 to 75%,B13
14,20 to 49%,B14
15,50 to 75%,B15
16,50 to 75%,B16
